Experimental findings from paper PMC5531472, “A single nucleotide polymorphism causes enhanced radical oxygen species production by human aldehyde oxidase” (PLoS ONE, 2017) are described below.

This series concerns the molecule itself. As to the kind of experiment: SEC; size exclusion chromatography on a Superdex 200 10/300 GL column after nickel-NTA purification; data not shown. For orientation: In gel filtration, larger molecules generally elute earlier.

Where a chain is given by its changes, count along the chain named. In names and notes the source's numbering stands.

A word on the stoichiometry N: it is a count of units in the complex or per binding partner.

B1: human aldehyde oxidase 1 variant G46E (enzyme)
chain: MDRASELLFYVNGRKVIEKNVDPETMLLPYLRKKLRLTGTKYGCGEGGCGACTVMISRYNPITKRIRHHPANACLIPICSLYGAAVTTVEGIGSTHTRIHPVQERIAKCHGTQCGFCTPGMVMSIYTLLRNHPEPTLDQLTDALGGNLCRCTGYRPIIDACKTFCKTSGCCQSKENGVCCLDQGINGLPEFEEGSKTSPKLFAEEEFLPLDPTQELIFPPELMIMAEKQSQRTRVFGSERMMWFSPVTLKELLEFKFKYPQAPVIMGNTSVGPEVKFKGVFHPVIISPDRIEELSVVNHAYNGLTLGAGLSLAQVKDILADVVQKLPEEKTQMYHALLKHLGTLAGSQIRNMASLGGHIISRHPDSDLNPILAVGNCTLNLLSKEGKRQIPLNEQFLSKCPNADLKPQEILVSVNIPYSRKWEFVSAFRQAQRQENALAIVNSGMRVFFGEGDGIIRELCISYGGVGPATICAKNSCQKLIGRHWNEQMLDIACRLILNEVSLLGSAPGGKVEFKRTLIISFLFKFYLEVSQILKKMDPVHYPSLADKYESALEDLHSKHHCSTLKYQNIGPKQHPEDPIGHPIMHLSGVKHATGEAIYCDDMPLVDQELFLTFVTSSRAHAKIVSIDLSEALSMPGVVDIMTAEHLSDVNSFCFFTEAEKFLATDKVFCVGQLVCAVLADSEVQAKRAAKRVKIVYQDLEPLILTIEESIQHNSSFKPERKLEYGNVDEAFKVVDQILEGEIHMGGQEHFYMETQSMLVVPKGEDQEMDVYVSTQFPKYIQDIVASTLKLPANKVMCHVRRVGGAFGGKVLKTGIIAAVTAFAANKHGRAVRCVLERGEDMLITGGRHPYLGKYKAGFMNDGRILALDMEHYSNAGASLDESLFVIEMGLLKMDNAYKFPNLRCRGWACRTNLPSNTAFRGFGFPQAALITESCITEVAAKCGLSPEKVRIINMYKEIDQTPYKQEINAKNLIQCWRECMAMSSYSLRKVAVEKFNAENYWKKKGLAMVPLKFPVGLGSRAAGQAAALVHIYLDGSVLVTHGGIEMGQGVHTKMIQVVSRELRMPMSNVHLRGTSTETVPNANISGGSVVADLNGLAVKDACQTLLKRLEPIISKNPKGTWKDWAQTAFDESINLSAVGYFRGYESDMNWEKGEGQPFEYFVYGAACSEVEIDCLTGDHKNIRTDIVMDVGCSINPAIDIGQIEGAFIQGMGLYTIEELNYSPQGILHTRGPDQYKIPAICDMPTELHIALLPPSQNSNTLYSSKGLGESGVFLGCSVFFAIHDAVSAARQERGLHGPLTLNSPLTPEKIRMACEDKFTKMIPRDEPGSYVPWNVPI
notes: human aldehyde oxidase 1 (hAOX1), protein of 1338 amino acids, SNP-based variant G46E; construct pAF4 derived from pTHcohAOX1; also called hAOX1 G46E; pAF4; source: E. coli TP1000 (ΔmobAB), purified (nickel-nitrilotriacetic acid resin, size exclusion chromatography)
Turning to B1, the “stoichiometry N” value came to 2.

B2: human aldehyde oxidase 1 variant L438V (enzyme)
chain: B1 chain with E46G, L438V
notes: human aldehyde oxidase 1 (hAOX1), protein of 1338 amino acids, SNP-based variant L438V; construct pAF10 derived from pTHcohAOX1; also called hAOX1 L438V; hAOX1-L438V; source: E. coli TP1000 (ΔmobAB), purified (nickel-nitrilotriacetic acid resin, size exclusion chromatography)
For the protein B2, the “stoichiometry N” value was found to be 2.

B3: human aldehyde oxidase 1 variant A437V (enzyme)
chain: B1 chain with E46G, A437V
notes: human aldehyde oxidase 1 (hAOX1), protein of 1338 amino acids, SNP-based variant A437V; construct pAF9 derived from pTHcohAOX1; also called hAOX1 A437V; pAF9; source: E. coli TP1000 (ΔmobAB), purified (nickel-nitrilotriacetic acid resin, size exclusion chromatography)
For B3, the “stoichiometry N” value amounted to 2.

B4: human aldehyde oxidase 1 variant R1231H (enzyme)
chain: B1 chain with E46G, R1231H
notes: human aldehyde oxidase 1 (hAOX1), protein of 1338 amino acids, SNP-based variant R1231H; construct pAF12 derived from pTHcohAOX1; also called hAOX1 R1231H; pAF12; source: E. coli TP1000 (ΔmobAB), purified (nickel-nitrilotriacetic acid resin, size exclusion chromatography)
For the protein B4, the “stoichiometry N” value worked out at 2.

B5: human aldehyde oxidase 1 variant K1237N (enzyme)
chain: B1 chain with E46G, K1237N
notes: human aldehyde oxidase 1 (hAOX1), protein of 1338 amino acids, SNP-based variant K1237N; construct pAF13 derived from pTHcohAOX1; also called hAOX1 K1237N; pAF13; source: E. coli TP1000 (ΔmobAB), purified (nickel-nitrilotriacetic acid resin, size exclusion chromatography)
As to B5, the “stoichiometry N” value amounted to 2.

B6: human aldehyde oxidase 1 variant G346R (enzyme)
chain: B1 chain with E46G, G346R
notes: human aldehyde oxidase 1 (hAOX1), protein of 1338 amino acids, SNP-based variant G346R; construct pAF6 derived from pTHcohAOX1; also called hAOX1 G346R; pAF6; source: E. coli TP1000 (ΔmobAB), purified (nickel-nitrilotriacetic acid resin, size exclusion chromatography)
For B6, the “stoichiometry N” value came to 2.

B7: human aldehyde oxidase 1 variant G50D (enzyme)
chain: B1 chain with E46G, G50D
notes: human aldehyde oxidase 1 (hAOX1), protein of 1338 amino acids, SNP-based variant G50D; construct pAF5 derived from pTHcohAOX1; purified with a 10-fold lower yield than the other variants; also called hAOX1 G50D; hAOX1-G50D; source: E. coli TP1000 (ΔmobAB), purified (nickel-nitrilotriacetic acid resin, size exclusion chromatography)
With B7, the “stoichiometry N” value is 2.

B8: human aldehyde oxidase 1 variant A439E (enzyme)
chain: B1 chain with E46G, A439E
notes: human aldehyde oxidase 1 (hAOX1), protein of 1338 amino acids, SNP-based variant A439E; construct pAF11 derived from pTHcohAOX1; also called hAOX1 A439E; pAF11; source: E. coli TP1000 (ΔmobAB), purified (nickel-nitrilotriacetic acid resin, size exclusion chromatography)
In the case of B8, the “stoichiometry N” value stood at 2.

B9: human aldehyde oxidase 1 variant H363Q (enzyme)
chain: B1 chain with E46G, H363Q
notes: human aldehyde oxidase 1 (hAOX1), protein of 1338 amino acids, SNP-based variant H363Q; construct pAF7 derived from pTHcohAOX1; also called hAOX1 H363Q; pAF7; source: E. coli TP1000 (ΔmobAB), purified (nickel-nitrilotriacetic acid resin, size exclusion chromatography)
Regarding B9, the “stoichiometry N” value came to 2.

B10: human aldehyde oxidase 1 variant R433P (enzyme)
chain: B1 chain with E46G, R433P
notes: human aldehyde oxidase 1 (hAOX1), protein of 1338 amino acids, SNP-based variant R433P; construct pAF8 derived from pTHcohAOX1; also called hAOX1 R433P; pAF8; source: E. coli TP1000 (ΔmobAB), purified (nickel-nitrilotriacetic acid resin, size exclusion chromatography)
For the protein B10, the “stoichiometry N” value worked out at 2.
